Data taken from patent publication US20260242478A1 (published 2026).
Where no end group is shown, it is not given here.

B1: Phage-2166 (peptide)
peptide: YEKWCTPAWMCEYQ
notes: Clonal phage of the peptide-180 library, tested as crude supernatant; not shown: pIII of the bacteriophage, to which the peptide is fused
B2: Phage-2171 (peptide)
peptide: GDRLCVPEWMCEML
notes: as for B1
B3: Phage-2165 (peptide)
peptide: VVPWCIPVWMCNSQ
notes: as for B1
B4: Phage-2174 (peptide)
peptide: YVNWCTPEWMCVGF
notes: as for B1
B5: Phage-2170 (peptide)
peptide: DENWCKPLWMCKGF
notes: as for B1
B6: Phage-2172 (peptide)
peptide: MAMMCIPPWMCDTM
notes: as for B1
B7: Phage-2173 (peptide)
peptide: ENKWCIPTWMCAHE
modifications: cysteine pairing not given here; also: displayed on phage, fused to pIII
notes: as for B1
B8: Phage-2169 (peptide)
peptide: ESMLCRPVWMCVGF
notes: as for B1
B9: Phage-2163 (peptide)
peptide: GSHWCIPPWMCQMS
notes: as for B1
B10: Phage-2175 (peptide)
peptide: VIPWCIPEWMCTAS
notes: as for B1
B11: Phage-2162 (peptide)
peptide: EVKLCRPPWMCEIF
notes: as for B1
B12: Phage-2164 (peptide)
peptide: DIRWCIPDWMCTET
notes: as for B1
B13: Phage-2176 (peptide)
peptide: VEHWCTPRWMCRGF
notes: as for B1
B14: Phage-2167 (peptide)
peptide: VQKWCVPEWMCGSW
notes: as for B1
B15: Phage-2168 (peptide)
peptide: GEKWCIPEWMCVHL
notes: as for B1
B16: Phage-2152 (peptide)
peptide: IEKWCTPAWMCYGI
notes: Clonal phage of the Peptide-180 library, tested as crude supernatant; not shown: fused to the pIII filament of the bacteriophage
B17: Phage-2154 (peptide)
peptide: LDKWCTPEWMCWGI
notes: as for B16
B18: Phage-2149 (peptide)
peptide: ITNWCKPAWMCEVS
notes: as for B16
B19: Phage-2147 (peptide)
peptide: VEKWCIPQWMCVSQ
notes: as for B16
B20: Phage-2156 (peptide)
peptide: VSKWCTPEWMCTGF
notes: as for B16
B21: Phage-2153 (peptide)
peptide: EHKWCIPDWMCMVA
notes: as for B16
B22: Phage-2159 (peptide)
peptide: ETKWCFPPWMCAGS
notes: as for B16
B23: Phage-2155 (peptide)
peptide: EGRWCIPSWMCVGV
notes: as for B16
B24: Phage-2160 (peptide)
peptide: AMHWCIPKWMCETS
notes: as for B16
B25: Phage-2148 (peptide)
peptide: IMKLCMPPWMCAAM
notes: as for B16
B26: Phage-2150 (peptide)
peptide: VHIWCIPQWMCMDR
notes: as for B16
B27: Phage-2161 (peptide)
peptide: EMKWCIPDWMCAAG
notes: as for B16
B28: Phage-2158 (peptide)
peptide: FERWCIPAWMCQSD
notes: as for B16
B29: Phage-2151 (peptide)
peptide: YEIRCIPPWMCAFD
notes: as for B16
B30: Phage-2157 (peptide)
peptide: DVIRCTPDWMCTGF
notes: as for B16
B31: Phage-2178 (peptide)
peptide: ITKWCTPAWMCAHL
modifications: cysteine pairing not given here; also: displayed on bacteriophage as fusion to pIII
notes: tested as crude clonal phage supernatant
B32: Phage-2181 (peptide)
peptide: LDKLCIPSWMCWSH
notes: as for B31
B33: Phage-2180 (peptide)
peptide: LIKWCTPPWMCEQL
notes: as for B31
B34: Phage-2182 (peptide)
peptide: HEKLCIPWWMCEDH
notes: as for B31
B35: Phage-2179 (peptide)
peptide: EPKLCRPAWMCVGM
notes: as for B31
B36: Phage-2183 (peptide)
peptide: VHMRCIPEWMCQVF
notes: as for B31
B37: Phage-2177 (peptide)
peptide: SLHLCIPQWMCGIS
modifications: cysteine pairing not given here; also: displayed on bacteriophage as fusion to pIII
notes: as for B31

These binders were tested against T1, Anti-PSMA Fab (SEQ ID NOs: 19, 20) (assay: phage ELISA; captured PSMA Fab pre-incubated with PSMA antigen as competitor, anti-M13 HRP detection).
T1 construct: Biotinylated and captured on neutravidin coated plates in the phage ELISA; also called 006 PSMA Fab
Experimental: (§1) Clonal phage were harvested as crude supernatants and screened via standard ELISAs. […] Prior to the addition of clonal phage. wells were incubated with blocking buffer and PSMA antigen or blocking buffer alone. Without washing or aspirating, clonal phage supernatants were then added to the wells and incubated for a short time. Wells were then washed followed by detection of bound phage using a horse radish conjugated anti-M13 antibody.

Binder	Phage binding ELISA, Anti-PSMA Fab signal in the presence of PSMA
B1	0.0648
B2	0.0685
B3	0.0957
B4	0.0598
B5	0.105
B6	0.0889
B7	0.0646
B8	0.0711
B9	0.0821
B10	0.0692
B11	0.0633
B12	0.0725
B13	0.0605
B14	0.0837
B15	0.065

Each binder was assayed against T2, Anti-PSMA Fab (SEQ ID NOs: 19, 20) (assay: phage ELISA; PSMA Fab on plate pre-incubated with PSMA antigen as competitor, anti-M13 HRP detection;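 also: crude clonal phage supernatants added to Fab-coated wells still holding PSMA antigen in blocking buffer, with bound phage as read-out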).
T2 construct: Biotinylated PSMA Fab captured on neutravidin coated plates in the phage ELISA; also called 006 PSMA Fab
Experimental: as §1

Binder	Phage binding ELISA, Anti-PSMA Fab signal in the presence of PSMA
B16	0.077
B17	0.0536
B18	0.114
B19	0.0673
B20	0.0826
B21	0.0728
B22	0.337
B23	0.0956
B24	0.141
B25	0.0907
B26	0.202
B27	0.0716
B28	0.066
B29	0.117
B30	0.064

The binders below were run against T3, Anti-PSMA Fab (SEQ ID NOs: 19, 20) (assay: phage binding ELISA; Fab-coated wells pre-incubated with PSMA antigen as competitor, anti-M13-HRP detection;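 also: clonal phage supernatants screened, with reference wells given blocking buffer only (no PSMA antigen) before phage were added for a brief incubation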).
T3 construct: Biotinylated and captured on neutravidin coated plates in the phage ELISA; also called 006 PSMA Fab
Experimental: as §1

Binder	Anti-PSMA Fab signal in the presence of PSMA
B31	0.0904
B32	0.0713
B33	0.0655
B34	0.0868
B35	0.0704
B36	0.071
B37	0.0806

Each binder was assayed against T4, Anti-PSMA Fab (SEQ ID NOs: 19, 20) (assay: phage ELISA; biotinylated PSMA Fab on neutravidin plate pre-incubated with PSMA antigen as competitor, anti-M13-HRP detection).
T4 construct: also called 006 PSMA Fab
Experimental: as §1

Binder	Phage binding ELISA, Anti-PSMA Fab signal in the presence of PSMA
SAPWCIPEWMCFSL [Phage-2146]	0.101
AEKWCIPNWMCEAG [Phage-2144]	0.0588
VWHWCTPPWMCNAE [Phage-2143]	0.141
MVNWCTPPWMCWGF [Phage-2145]	0.194

What follows are binders tested against T3, Anti-PSMA Fab (SEQ ID NOs: 19, 20) (assay: phage binding ELISA; biotinylated PSMA Fab on neutravidin plate, clonal phage detected with anti-M13-HRP).
Experimental: as §1

Binder	Anti-PSMA Fab (SEQ ID NOs: 19, 20) signal
B31	1.64
B32	1.64
B33	1.64
B34	1.64
B35	1.64
B36	1.63
B37	1.64

What follows are binders tested against T4, Anti-PSMA Fab (SEQ ID NOs: 19, 20) (assay: phage ELISA; biotinylated PSMA Fab on neutravidin plate, clonal phage supernatant, anti-M13-HRP detection;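 also: wells were preincubated with blocking buffer containing PSMA antigen or with blocking buffer only, then phage supernatant was added without washing for a brief incubation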).
Experimental: as §1

Binder	Phage binding ELISA, Anti-PSMA Fab (SEQ ID NOs: 19, 20) signal
SAPWCIPEWMCFSL [Phage-2146]	1.69
AEKWCIPNWMCEAG [Phage-2144]	1.69
VWHWCTPPWMCNAE [Phage-2143]	1.69
MVNWCTPPWMCWGF [Phage-2145]	1.69

Each binder was assayed against T2, Anti-PSMA Fab (SEQ ID NOs: 19, 20) (assay: phage ELISA; biotinylated PSMA Fab on neutravidin plate, clonal phage supernatant, anti-M13 HRP detection;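 also: wells preincubated with PSMA antigen in blocking buffer or with blocking buffer only before clonal phage were added for a short incubation, then bound phage detected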).
Experimental: as §1

Binder	Phage binding ELISA, Anti-PSMA Fab (SEQ ID NOs: 19, 20) signal
B16	1.68
B17	1.67
B18	1.68
B19	1.69
B20	1.67
B21	1.67
B22	1.66
B23	1.67
B24	1.66
B25	1.68
B26	1.68
B27	1.66
B28	1.66
B29	1.68
B30	1.66

Each binder was assayed against T1, Anti-PSMA Fab (SEQ ID NOs: 19, 20) (assay: phage ELISA; biotinylated PSMA Fab captured on neutravidin plate, clonal phage supernatant, anti-M13 HRP detection).
Experimental: as §1

Binder	Phage binding ELISA, Anti-PSMA Fab (SEQ ID NOs: 19, 20) signal
B1	1.65
B2	1.65
B3	1.65
B4	1.64
B5	1.65
B6	1.65
B7	1.64
B8	1.65
B9	1.66
B10	1.64
B11	1.66
B12	1.65
B13	1.64
B14	1.65
B15	1.65
